Reference: the nanobody polyreactivity screen of Harvey et al. (2022)

Assay: yeast display, Sf9 membrane polyspecificity reagent, FACS + sequencing; frameworks hold sequencing errors
Method in brief: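 After 36–48 hours of galactose induction, yeast (Saccharomyces cerevisiae BJ5465) displaying a synthetic nanobody library were stained at 4 °C for 1 hour with 10% biotinylated, detergent-solubilized Sf9 membrane reagent. Streptavidin microbeads enriched the stained cells before FACS sorting into low and high (top ~1%) gates on anti-HA and streptavidin fluorescence. Each clone's polyreactivity label reflects its gate of origin.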

QVQLVDSGGGLVQAGGSLRLSCAASGSIFFENDMGCYRQAPGKEREFVAAISLSSTSTYYADSVKGRFTISRDNAKNTVYLQMNSLKPEDTAVYYCAADAIFGWPTFDFWGQGTQVTVSS
polyreactivity (PSR sort gate): low polyreactivity

QVQLVESGGGLVQAGGSLRLSCAASGIIFAYYAMGWYRQAPGKERELVASITNTGSTYYADSVKGRFTISRDNAKNTVYLQMNSLKPEDTAVYYCNAVLSSNTKWRYPGDYWGQGTQVTVSS
polyreactivity (PSR sort gate): low polyreactivity

QVQLVESGGGLVQAGGSLRLSCAASGRTFRHNTMGWYRQAPGKEREFVAVITSSGGSTYYADSVKGRFTISRDNAKNTVYLQMNSLKPEDTAVYYCNAKYHLSRSTYYYWGQGTQVTVSS
polyreactivity (PSR sort gate): high polyreactivity

QVQLVESGGGLVQAGGSLRLSCAASGRTFTYNTMGWYRQAPGKERELVAAISSRGGRTYYADSVKGRFTISRDNAKNTVYLQMNSLKPEDTAVYYCNADYRYPQYYHRTWIRYDYWGQGTQVTVSS
polyreactivity (PSR sort gate): high polyreactivity

QVQLVESGGGLVQAGGSLRLSCAASGRIFAGNAMGWYRQAPGKERELVAVISKGGGRTYYADSVKGRFTFSRDNAKNTVYLQMNSLKPEDTAVYYCAVRTLQRGKHDLGVDYWGQGTHVTVSS
polyreactivity (PSR sort gate): high polyreactivity

QVQLVESGGGLVQAGGSLRLSCAAYGSTFPGYAMGWYRQAPGKERELVAAISASGGSTYYADSVKGRFTISRDNAKNTVYLQMISLIPEDTAVYFCAKVLSRGACADDYWGQGTQVTVSS
polyreactivity (PSR sort gate): low polyreactivity

QVQLVESGGGLVQAGGSLRLSCAASGSTFIVNAMGWYRQAPGKERELVATISGGDSTDYADSVKGRFTISRDNAKNTVYLQMNSLKPEDTAVYYCNSDVHQYYFTPYDYWGQGTQVTVSS
polyreactivity (PSR sort gate): low polyreactivity

QVQLVESGGGLVQAGGSLRLSCAASGITFRFYAMGWYRQPPGKERELVAAITSGGGTYYADSVKGRFTISRDNAKNTVYLQMNSLKPEDTAVYYCAAYQYNRKRHNYWGLGTQVTVSS
polyreactivity (PSR sort gate): high polyreactivity

QVHIVESGGGLVQAGGSLRLSCGASGFTFIYAMGWYRQAHAKEREMVAAITRSGGSTYYADSVKGRFTISRDNAKNTVYSQMNILKPEDTAFYYCAARLRYQGRGYRYWGQGTQVTVSS
polyreactivity (PSR sort gate): high polyreactivity

QVQLVESGGGLVQAGGSLRLSCAASGFTFDKNVMGWYRQAPGKERELVAAISVRGGTTYYADSVKGRFTISRDNAMNTVYLQMNSLKPEDTAVYYCAARAYGPPARYDSWGQGTQVTVSS
polyreactivity (PSR sort gate): low polyreactivity

QVQLVESGGRLVQAGGSLRLSCSASGSTFRRNAMGWYRQAPGKERELVAAISWSSTRTYYADSVKGRFTISRDNAKNTVYLQMNSLKPEDTAVYYCAADSYGGGFQLYSYVSGLYYWGEGTQVTVSS
polyreactivity (PSR sort gate): high polyreactivity

QVQLVESGGGLVQAGGSLRLSCAASGSTFRYYVMGWYSQSPGKERELVAGISYRGGTTYYADSVKGRFTISRDNAKNTVYLQMYILKPEDTAVYYCNAETAAAQASYDRLYVLLDYWGQGTQVTVSS
polyreactivity (PSR sort gate): low polyreactivity

QVQHVESGGGLVQAGGSLRLSCAASGLIFRYYVKGWYRPAPGKERDLDAGITSSGGYTFYAESVKGRFTISRDNAKNTVYLQMNSLKPDDTAVYYCAARRPYAYARSSRYDYWGQGTQVSVSS
polyreactivity (PSR sort gate): high polyreactivity

QFQLVESGGGLVQAGGSLRLSCAASGSTFGYYAMGWYSQAPGKERELVAAITSTGRTKYADSVKGRFTISRDNAKNSVYLQMNSLKPEDTAVYYCAADIWGQGTQVTVSS
polyreactivity (PSR sort gate): high polyreactivity

QVQLVESGGGLVQAGGSLRLSCAASGYIFRHYAMVWYRQAPGKERELVAAISSSGGRTNYADSLKGRFTISRDNAKITVYLQMNSLKPEDTAVYYCNAGRYQYLGGYGYWGQGTQVTVSS
polyreactivity (PSR sort gate): low polyreactivity

QVQLVESGGGLVQAGGNLRLICDASGSIFLYNTMGWYRHAPGQERELVAAITYSGGSTYYADSVKGRFTISRDNAKNTVYLQMNSLNPEDTAVYYCNARHYSAFYSWGQGTQVTVSS
polyreactivity (PSR sort gate): high polyreactivity

QVQLVESGGGLVQAGGSLRLSCAASGRTFYVNAMGWSRHAPGIERELVAGISFSDGSTYYADSVKWRFTISRDNAKSTVYLQMNSLKPEDTAVYYCATVGALDIYYGYGYWGQGTQVTVSS
polyreactivity (PSR sort gate): low polyreactivity

QDQLVESGGGLVQAGGSLRLSCAASGRTFIRNAMGWYRQAPGKERELVAAISRSGGRTYYADSVKGRFTISRDNAKNTVYLQMNSLKPEDTAVYYCAAGSYQRYAFDYWGQGTQVTVSS
polyreactivity (PSR sort gate): high polyreactivity

QDQLVESGGGLVQAGGSLRLSCAASGLIFVGYALGGYRQAPGKERELVAAITSGGSTKYADSVKGRFTSSRDNAKNTVYLQMNSLKPEDTAVYYCAASGWRNWWSARNYYWGQGTQVTVSS
polyreactivity (PSR sort gate): high polyreactivity

QVQLVESGGGLVQAGGSLRLSCAASGFTFYTYAMGWYRQAPGKERELVAAINQRGGRTYYADSVKGRFTISRDNAKNTVYLQMNSLKPEDTAVYYCAKSPPPKTRYDYWGQGTQVTVSS
polyreactivity (PSR sort gate): high polyreactivity

QVQLVESGGGLVQAGGSLRLSCAASGSTFYWYTMGWYRQAPGKEKELVARISSSGSTNYADSVKGRFTISRDNAKNTVYLQMNSLKPEDTAVYYCNKDWIYRGYDYWGQGTQVTVSS
polyreactivity (PSR sort gate): high polyreactivity

QFQLVESGGGLVQAGGSLRLSCAASGRIFYYNAMGWYRQAPGKERELVAAITGGGSTNYADSVKGRFTISRDNAKNTVYLQMNSLKPEDTAVYYCAARHYPRNSWGYDYWGQGTQVTVSS
polyreactivity (PSR sort gate): high polyreactivity

QVQLVESGRGLVQAGGSLRLSCAASGSTFTEYAMGWYREAPGKERELFAAINRSGGGTYYADSVKGRFTISRDNAKNTVYLQINSLKPEDTADYYCAKDWYRRYIRDYWGQGTQVTVSS
polyreactivity (PSR sort gate): high polyreactivity

QVQLVESGGGLVQAGGSLRLSCAASGRTFKINAMGWYRPAPGKERELVAAISRGGGSTYADSVKGRFTISRDNAKNTVYLQMNSLKPEDTAVYYCAARVYGTRKINYSWGQGTQVTVSS
polyreactivity (PSR sort gate): high polyreactivity

QVQLVESGGGLVQAGGSLRLSCAASGSTFNDNAMGWYRQAPGKERELVAGISYSGGSTYYADSVKGRFTISRDNAKNTVYLQMNSLKPEDTAVYYCNADVTGLSQFGYWGQGTQVTVSS
polyreactivity (PSR sort gate): low polyreactivity

QVQLVESGGGLVQAGGSLRLSCAASGLIVGGYTMGWYRQAPGKERDLVAAIDSADSTYYADSVKGRFTISRDNAKNTVYLQMNSLKPEDTAVYYCATYWFYSGPAFSLRETGGVNYWGQGTQVTVSS
polyreactivity (PSR sort gate): low polyreactivity

QVQLVESGGGLVQAGGSLRLSCAASGLIFESNAMGWYRQAPGKERELVAAITTNGGSTYYADSVKGRFTISRDNAKNTVYFQMNSLKPEVTAVYYCAALGLHQVIEYDYWGQGTQVTVSS
polyreactivity (PSR sort gate): low polyreactivity

QVQLVESGGGLVQAGGSLRLSCAASGSTFGFNAMGWYRQAPGKERELVAAITKSGGSTYYADSVKGRFTISRDNAKNTVYLQMNSLKPEDTAVYYCAARRSGRKYDYWGQGTQVTVSS
polyreactivity (PSR sort gate): high polyreactivity

QVQLVESGGGLVQAGGSLRLSCPASGRTFWWYAMGWYRQAPGKEREIVAAISQRGTSTYYADSVKGRFTISRDNAKNTVYLQMNSLNPEDTAVYYCAADRPYYPLKYDYWGQGTQVTVSS
polyreactivity (PSR sort gate): high polyreactivity

QVQLVESGGGLVQAGGSLRLSCAASGSTFVVYAMGWYRQAPGKERELVAAIDLSVGDTYYADSVKGRFTISRDNAKNTVYLQMNSLKPEDTAVYYCAAEFYSYKYPDYDYWGQGTQVTVSS
polyreactivity (PSR sort gate): low polyreactivity

QDQLVDSGGGLVQAGGRLRLSCAASGLTLGSYAMGWSRQAPGQVRELVAAITRGGRSNYADSVKGRFSISRDNAKNTVYLQMYSLKPEDTAVYYCYADGPGYAAKYYWIYDYWGQGTQVTVSS
polyreactivity (PSR sort gate): low polyreactivity

QVQLVESGGGLVQAGGSLRLSCAASGGIFIYNAMGWYRQAPGKEREFVAAINISGGNTYYADSVKGRFTISRDNAKNTVYLQMNSLKPEDTAVYYCAKSGRYGFWGQGTQVTVSS
polyreactivity (PSR sort gate): high polyreactivity

QVQLVESGGGLVQAGVSLRLSCVASGLTQPYAMGWYRQAPGKESELVAGISWRGASTYYADSVKGRFTISRDNAKNTVYLQMNSLKPEDTAVSYCAARSTIQRRGYYGYRVGRSEYGYWGQGTQVTVSS
polyreactivity (PSR sort gate): low polyreactivity

QVQLVESGGVLVQAGGILRLSCAESGSIFSYYAMVWYRQAPWKERELVASISWNGTSTYYADSVKGRFTISRDNSKNTVYLQMNSLKPEDTAVYYCNVRFNYRGTYDYWGQGTQVTVSS
polyreactivity (PSR sort gate): low polyreactivity

QVQLVESGGGLVQAGGSLRLSCAASGRTFGGNAMGWYRQAPGKEWELVAAIDQSGGSTYYADSVKGRFTISRDNAKNTVYLQMISLKPEDTAVYYCARKTYSYFGHYYFWGQGTQVTVSS
polyreactivity (PSR sort gate): low polyreactivity

QVQLVESGGGLVQAGGSLRLSFAASGSTFKRYLMGWYRQAPGKERELVAAISSRGGSTYYADSVKGRFTISRDYANNTVYLQMISLKPEYTAVFYCATANVRAEDYWGQGTQVTVSS
polyreactivity (PSR sort gate): high polyreactivity

QVQLVESGGGLVQAGGSLRLSCAASGSTFRGNAMGWYRQAPGKERELVAAISRRGGSTNYADSVKGRFTISRDNAKNTVYLQMNSLKPEDTAVYYCNKGDYRSAYRHIEYGYWGQGTQVTVSS
polyreactivity (PSR sort gate): low polyreactivity

QVQLVESGGGLVQAGGSLRLSCAASGSIFAGNAMGWYCHAPGKERELVAAIRYGGTSTYYADSVKGRFTISRDNAKNTVYLQMNSLIPEDTAVYYCAATDWWGYYYWGQGTQVTVSS
polyreactivity (PSR sort gate): high polyreactivity

QVQLVESGGGLVQAGGSLRLISAASGRIFDLYTMGWYRQAPGKERELVAAIRWSHGSTYYADSVKGRFTISRDNAKNTVYLQMNSLKPEDTAVYYCAADTRTSYYNDDYDYWGQGTQVTVSS
polyreactivity (PSR sort gate): low polyreactivity

QLQLVESGGRLVQAGGSLRLSCAASGRIFYANAMGWYRQAPGKERELVAAISSGGSTYYADSVKGRFTISRDNAKNTVLLQMNSLKPEDTAVYYCAVYTHKKVRPEYDYWGQGTQVTVSS
polyreactivity (PSR sort gate): low polyreactivity

QVQLVESGGGLVQAGGSLRLSCAATARNFYRYAMAWYRQAPGKERELVARITSAGSTDYADSVKGRFTISRDNAKNTVYLQMNSLKPEDTAVYYCAAFGFSYRTFWYDYWGQGTQVTVSS
polyreactivity (PSR sort gate): high polyreactivity

QVQLVESGGGLVQAGGSLRLSCAASGRIFNVNAMGWYRQAPGKERDLVARIDTGVGTKYADSVKGRFTISRDNAKNTVYLQMNSLKPEDTAVYYCAARSFSGYGYLVRPKWYYYWGQGTQVTVSS
polyreactivity (PSR sort gate): high polyreactivity

QVQLVESGGGLVQAGGSLRLSCAASGFTCSTYAMGWYSQAPGKERELVAVISWNGGSTYYADSVKGRFTISRDNANNTVYLQMNSLKPEDTAVYYCDARGSFKQGYWGQGTQVTVSS
polyreactivity (PSR sort gate): high polyreactivity
